Source: patent publication US20220372138A1 (IOMX THERAPEUTICS, published 2022)
Changes are numbered by the printed parent chain.

T1: IgC2 domain of human IGSF11 fused to murine IgG2a Fc (human, UniProt Q5DX21 137-241)
T1 construct: not shown: murine IgG2a Fc-region
T1 sequence: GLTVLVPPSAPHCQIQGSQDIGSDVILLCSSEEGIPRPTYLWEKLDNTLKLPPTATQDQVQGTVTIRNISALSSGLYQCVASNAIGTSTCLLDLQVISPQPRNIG

T2: full-length ECD of human IGSF11 fused to murine Fc (human, UniProt Q5DX21 23-241)
T2 construct: also called Fc-fusion IGSF11 ECD; not shown: murine Fc
T2 sequence: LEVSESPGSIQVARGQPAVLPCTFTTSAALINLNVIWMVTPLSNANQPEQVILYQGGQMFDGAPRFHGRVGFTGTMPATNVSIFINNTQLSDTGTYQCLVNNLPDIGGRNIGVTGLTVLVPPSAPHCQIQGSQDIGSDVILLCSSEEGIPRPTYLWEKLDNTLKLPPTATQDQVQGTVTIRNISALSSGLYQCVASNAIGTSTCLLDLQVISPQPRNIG

T3: ECD of murine IGSF11, recombinant biotinylated (mouse, UniProt P0C673 23-240)
T3 construct: whole entry named; also called Mouse IGSF11
T3 sequence: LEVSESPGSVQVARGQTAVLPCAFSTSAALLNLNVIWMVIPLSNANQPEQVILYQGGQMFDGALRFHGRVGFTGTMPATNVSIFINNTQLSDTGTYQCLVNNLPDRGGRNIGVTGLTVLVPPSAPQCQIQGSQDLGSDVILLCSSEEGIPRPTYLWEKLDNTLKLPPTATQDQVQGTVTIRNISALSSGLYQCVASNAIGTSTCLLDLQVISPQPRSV

T4: extracellular domain (ECD) of human IGSF11 (VSIG3), recombinant (human, UniProt Q5DX21 23-241)
T4 construct: biotinylated where captured on streptavidin; tags of the reagent not always stated; also called IGSF11 (ECD domain); ECD-IGSF11
T4 sequence: T2 sequence

B1: C-022 (IgG1 format) (antibody, V domains shown)
VH: EVQLLESGGGLVQPGGSLRLSCAASGFTFSSYAMSWVRQAPGKGLEWVSAISGSGGSTYYADSVKGRFTISRDNSKNTLYLQMNSLRAEDTAAYYCARMAAGASWGTFDYWSQGTLVTVSS
VL: DIQMTQSPSSLSASVGDRVTITCRASQSISSYLNWYQQKPGKAPKLLIYAASSLQSGVPSRFSGSGSGTDFTLTISSLQPEDFATYYCQQRSGSPLTFGQGTKVEIK
B2: C-018 (IgG1 format) (antibody, V domains shown)
VH: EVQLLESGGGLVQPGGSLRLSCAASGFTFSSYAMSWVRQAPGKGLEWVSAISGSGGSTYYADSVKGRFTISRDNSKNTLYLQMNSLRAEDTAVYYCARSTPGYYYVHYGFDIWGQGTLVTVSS
VL: SYELTQPPSVSVSPGQTASITCSGDKLGDKYASWYQQKPGQSPVLVIYQDSKRPSGIPERFSGSNSGNTATLTISGTQAEDEADYYCQAWSTSTHSWVFGGGTKLTVL
B3: C-015 (IgG1 format) (antibody, V domains shown)
VH: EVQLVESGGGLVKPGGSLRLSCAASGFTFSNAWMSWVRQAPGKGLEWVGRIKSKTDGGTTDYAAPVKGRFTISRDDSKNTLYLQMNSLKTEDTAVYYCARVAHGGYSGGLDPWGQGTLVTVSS
VL: B2 VL with Q88S, A89S, W90T, S91G, S93A, T94H, H95T, S96L, W97A
B4: A-033 (scFv format) (scFv, V domains shown)
VH: QVQLVQSGAEVKKPGASVKVSCKASGYTFTSYGISWVRQAPGQGLEWMGWISAYNGNTNYAQKLQGRVTMTTDTSTSTAYMELRSLRSDDTAVYYCARDHSIVGATTFDYWGQGTLVTVSS
VL: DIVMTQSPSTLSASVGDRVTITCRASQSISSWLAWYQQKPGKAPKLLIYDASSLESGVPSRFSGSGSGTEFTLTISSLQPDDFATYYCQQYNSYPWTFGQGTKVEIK
notes: scFv
B5: A-029 (scFv format) (scFv, V domains shown)
VH: QVQLVQSGAEVKKPGSSVKVSCKASGGTFSSYAISWVRQAPGQGLEWMGGIIPIFGTANYAQKFQGRVTITADESTGTAYMELSSLRSEDTAVYYCARSYYYYYGMDVWGQGTTVTVSS
VL: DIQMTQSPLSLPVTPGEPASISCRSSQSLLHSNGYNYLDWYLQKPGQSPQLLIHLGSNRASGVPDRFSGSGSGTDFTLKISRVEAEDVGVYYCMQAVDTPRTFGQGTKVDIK
notes: scFv
B6: A-027 (scFv format) (scFv, V domains shown)
VH: QVQLVQSGAEVKKPGSSVKVSCKASGGTFSSYAISWVRQAPGQGLEWMGGIIPIFGTANYAQKFQGRVTITADKSTSTAYMELSSLRSEDTAVYYCARARGSTWGYFDYWGQGTLVTVSS
VL: EIVLTQSPASLSLSPGERVTLSCRASQSVSNYLAWYQQKPGQAPRLLIYDASNRATGIPARFSGSGSGTDFTLTISSLEPEDFAVYYCQQRDNWPLTFGGGTKVEIK
notes: scFv
B7: A-025 (scFv format) (scFv, V domains shown)
VH: QVQLVQSGAEVKKPGSSVKVSCKASGGTFSSYAISWVRQAPGQGLEWMGGIIPIFGTANYAQKFQGRVTITADESTSTAYMELTSLRSEDTAVYYCARGGWLRQNWFDPWGQGTLVTVSS
VL: SSELTQDPAVSVALGQTVRITCQGDSLRSYYASWYQQKPGQAPVLVIYGKNNRPSGIPDRFSGSSSGNTASLTITGAQAEDEADYYCNSRDSSGNHPRVFGGGTKLTVL
notes: scFv
B8: A-028 (scFv format) (scFv, V domains shown)
VH: QVQLVQSGAEVKKPGSSVKVSCKASGGTFSSYAISWVRQAPGQGLEWMGGIIPIFGTANYAQKFQGRVTITADESTSTAYMELSSLRSEDTAVYYCARVGVEYQLLWYFDYWGQGTLVTVSS
VL: DIQMTQSPSSLSASVGDRVTLTCRTSQTISNYLNWYQQKPGKAPKLLVYAASNLQSWVPSRFSGSGSGTDFTLTISSLQPEDFATYYCQQSYNASFGGGTKVEFK
notes: scFv
B9: A-003 (scFv format) (scFv, V domains shown)
VH: VQLVQSGAEVKKPGSSVKVSCKASGGTFSSYAISWVRQAPGQGLEWMGGIIPIFGTANYAQKFQGRVTITADESTSTAYMELSSLRSEDTAVYYCASPRIQLWAAGGFDYWGQGTLVTVSS
VL: QSALTQPASVSGSPGQSITISCTGTSSDVGGYNLVSWYQQHPGKAPKLMIYDVSNRPSGVSNRFSGSKSGNTASLTISGLQAEDEADYYCSSFTTSTTLVFGGGTKLTVL
notes: scFv
B10: A-031 (scFv format) (scFv, V domains shown)
VH: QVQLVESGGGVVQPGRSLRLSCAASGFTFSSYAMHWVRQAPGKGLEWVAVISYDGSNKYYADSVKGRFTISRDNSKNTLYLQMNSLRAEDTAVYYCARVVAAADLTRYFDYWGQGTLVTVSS
VL: EIVLTQSPGTVSLSPGERATLSCRASQSVPKNYLAWFQQKPGQAPRLVIHTASSRAPGIPDRFTGSGSGTDFTLTISRLEPEDFAVYYCQQYGTSPNTFGQGTKLDIK
notes: scFv
B11: A-032 (scFv format) (scFv, V domains shown)
VH: QVQLVQSGAEVKKPGASVKVSCKASGYTFTGYYMHWVRQAPGQGLEWMGWMNPNSGNTGYAQKFQGRVTMTRNTSISTAYMELSSLRSEDTAVYYCARGGQQQLVLDDYWGQGTLVTVSS
VL: not shown
B12: A-030 (scFv format) (scFv, V domains shown)
VH: B11 VH with M51I
VL: DIQLTQSPSTLSASVGDRVTITCRASQSIGGWLAWYQHKPGKAPKLLIYAASSLQSGVPSRFSGSGSGTDFTLTISSLQPEDFATYYCRQSYSTPPTFGQGTKVEIK
notes: scFv
B13: A-037 (scFv format) (scFv, V domains shown)
VH: B11 VH with M51I
VL: NFMLTQPHSVSESPGKTVTISCTGSSGSIASNYVQWYQQRPGSAPTTVIYEDNQRPSGVPDRFSGSIDSSSNSASLTISGLKTEDEADYYCQSYDSSNQRVFGGGTKLTVL
notes: scFv
B14: A-036 (scFv format) (scFv, V domains shown)
VH: B11 VH with M51I, N57G, G59N
VL: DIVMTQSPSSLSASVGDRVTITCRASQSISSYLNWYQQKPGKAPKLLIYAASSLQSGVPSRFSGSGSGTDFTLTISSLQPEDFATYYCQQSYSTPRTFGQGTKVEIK
notes: scFv
B15: C-016 (Fab format) (Fab, V domains shown)
VH: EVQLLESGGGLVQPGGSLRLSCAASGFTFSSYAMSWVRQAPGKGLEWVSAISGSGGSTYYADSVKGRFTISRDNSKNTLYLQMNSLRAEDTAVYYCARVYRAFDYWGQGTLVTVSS
VL: ASVLTQPPSVSAAPGQKVTISCSGSSSNIGNNYVSWYQQLPGTAPKLLIYDNNKRPSGIPDRFSGSKSGTSATLGITGLQAEDEADYYCHLYTEAESHWVFGGGTKLTVL
notes: Fab from E. coli lysate
B16: C-002 (Fab format) (Fab, V domains shown)
VH: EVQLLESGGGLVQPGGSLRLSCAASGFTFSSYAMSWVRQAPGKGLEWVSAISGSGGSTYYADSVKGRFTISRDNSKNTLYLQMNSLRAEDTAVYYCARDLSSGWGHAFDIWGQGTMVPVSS
VL: B15 VL with H90L, L91S, E94T, A95S, S97H, W99L
notes: Fab from E. coli lysate
B17: C-017 (Fab format) (Fab, V domains shown)
VH: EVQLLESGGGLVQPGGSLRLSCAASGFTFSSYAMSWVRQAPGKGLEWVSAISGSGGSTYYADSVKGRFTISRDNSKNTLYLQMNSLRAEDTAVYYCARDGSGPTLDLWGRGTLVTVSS
VL: DIQMTQSPSSLSASVGDRVTITCRASQSISSYLNWYQQKPGKAPKLLIYAASSLQSGVPSRFSGSGSGTDFTLTISSLQPEDFATYYCQQHRYIPPWTFGQGTKVEIK
notes: Fab from E. coli lysate
B18: C-020 (Fab format) (Fab, V domains shown)
VH: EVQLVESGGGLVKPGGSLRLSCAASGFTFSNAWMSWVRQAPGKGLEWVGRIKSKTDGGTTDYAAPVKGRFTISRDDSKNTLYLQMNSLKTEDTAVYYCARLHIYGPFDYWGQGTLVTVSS
VL: B2 VL with Q88L, A89S, W90Y, S91L, T92A, S93R, T94S, H95G, W97V
notes: Fab from E. coli lysate
B19: C-024 (Fab format) (Fab, V domains shown)
VH: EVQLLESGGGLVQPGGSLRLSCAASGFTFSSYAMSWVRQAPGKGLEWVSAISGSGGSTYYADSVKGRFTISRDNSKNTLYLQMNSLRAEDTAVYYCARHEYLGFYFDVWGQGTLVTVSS
VL: B2 VL with Q88L, W90S, S91H, T92R, S93L, H95L, S96N, W97Y
notes: Fab from E. coli lysate
B20: C-015 (Fab format) (Fab, V domains shown)
VH: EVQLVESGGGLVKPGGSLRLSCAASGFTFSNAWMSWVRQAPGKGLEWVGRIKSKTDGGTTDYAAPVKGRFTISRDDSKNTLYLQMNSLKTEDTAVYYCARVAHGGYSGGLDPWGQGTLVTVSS
VL: B2 VL with Q88S, A89S, W90T, S91G, S93A, T94H, H95T, S96L, W97A
notes: Fab from E. coli lysate
B21: C-023 (Fab format) (Fab, V domains shown)
VH: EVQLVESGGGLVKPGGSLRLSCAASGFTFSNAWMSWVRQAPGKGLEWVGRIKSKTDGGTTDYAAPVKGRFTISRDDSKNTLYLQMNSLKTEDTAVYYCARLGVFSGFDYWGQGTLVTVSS
VL: B2 VL with Q88H, A89T, S91T, T92H, S93H, T94S, H95L, S96A, W97V
notes: Fab from E. coli lysate

Each binder was assayed against T1, IgC2 domain of human IGSF11 fused to … (assay: IgG ELISA;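 also: ELISA binding of IgG antibodies to plate-coated IGSF11 Fc-fusion proteins (full-length ECD, IgV or IgC2 domain), detected via HRP-labelled anti-human IgG with TMB development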).
Experimental: (§1) Binding of IgG antibodies to each of the full-length ECD of IGSF11, to the IgV domain of IGSF11 and to the IgC2 domain of IGSF11, was tested in the ELISA assay as follows: briefly, recombinant domains of Fc-fusion IGSF11 proteins were coated at 2 ug/mL on a 384-well Maxisorp plate. The surface was blocked with 2% (w/v) skim milk powder in PBST. […] After removing all unbound antibodies by 3 wash cycles with PBST, bound IgG ABPs were detected with a goat anti-human IgG antibody conjugated with horseradish peroxidase. After three wash cycles with PBST the ELISA was developed with TMB substrate.
For B1, the EC50 was 1 to 20 nM. B2 showed an EC50 of less than 1 nM. Binder B3 has an EC50 of 1 to 20 nM.

The binders below were run against T2, full-length ECD of human IGSF11 fused … (assay: IgG ELISA;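 also: ELISA binding of IgG antibodies to plate-coated IGSF11 Fc-fusion proteins (full-length ECD, IgV or IgC2 domain), detected via HRP-labelled anti-human IgG with TMB development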).
Experimental: as §1
For B1, the EC50 was 1 to 20 nM. B2 showed an EC50 of 1 to 20 nM. Binder B3 has an EC50 of 20 to 100 nM.

What follows are binders tested against T3, ECD of murine IGSF11, recombinant … (assay: ELISA RFU 0.1-0.5).
With B4 the “ELISA binding signal (RFU)” value was 0.1 to 0.5 rfu. In the case of B5, the “ELISA binding signal (RFU)” value is reported as 0.1 to 0.5 rfu. B6 was tested, and the “ELISA binding signal (RFU)” value was 0.1 to 0.5 rfu. In the case of B7, the “ELISA binding signal (RFU)” value is reported as 0.1 to 0.5 rfu. For B8, the “ELISA binding signal (RFU)” value was 0.1 to 0.5 rfu. For B9, the “ELISA binding signal (RFU)” value was 0.1 to 0.5 rfu. With B10 the “ELISA binding signal (RFU)” value was 0.1 to 0.5 rfu. B11 was tested, and the “ELISA binding signal (RFU)” value was 0.1 to 0.5 rfu. With B12 the “ELISA binding signal (RFU)” value was 0.1 to 0.5 rfu. With B13 the “ELISA binding signal (RFU)” value was 0.1 to 0.5 rfu. For B14, the “ELISA binding signal (RFU)” value was 0.1 to 0.5 rfu.

Each binder was assayed against T4, extracellular domain (ECD) of human … (assay: ELISA RFU 0.1-0.5).
With B4 the “ELISA binding signal (RFU)” value was 0.1 to 0.5 rfu. For B5, the “ELISA binding signal (RFU)” value was 0.1 to 0.5 rfu. In the case of B6, the “ELISA binding signal (RFU)” value is reported as 0.1 to 0.5 rfu. With B7 the “ELISA binding signal (RFU)” value was 0.1 to 0.5 rfu. In the case of B8, the “ELISA binding signal (RFU)” value is reported as 0.1 to 0.5 rfu. With B9 the “ELISA binding signal (RFU)” value was 0.1 to 0.5 rfu. In the case of B10, the “ELISA binding signal (RFU)” value is reported as 0.1 to 0.5 rfu. With B11 the “ELISA binding signal (RFU)” value was 0.1 to 0.5 rfu. In the case of B12, the “ELISA binding signal (RFU)” value is reported as 0.1 to 0.5 rfu. In the case of B13, the “ELISA binding signal (RFU)” value is reported as 0.1 to 0.5 rfu. B14 was tested, and the “ELISA binding signal (RFU)” value was 0.1 to 0.5 rfu.

These binders were tested against T3, ECD of murine IGSF11, recombinant … (assay: Fab ELISA).
Experimental: (§2) In order to identify IGSF11-specific binding ABPs, monoclonal Fabs expressed from E. coli were generated from the enriched set of anti-IGFS11 antibody-expressing phage. After bacterial lysis, the Fabs were tested for their binding properties and cross-reactivity profile on recombinant ECD-IGSF11 (human, mouse and cynomolgus monkey) by standard ELISA. Briefly, biotinylated recombinant ECD-IGSF11 from human, mouse, or cynomolgus monkey were immobilized at 2 ug/mL on a streptavidin-coated 384-well Maxisorp plate. The surface was blocked with 2% (w/v) skim milk powder in PBST. After three wash cycles with PBST, a bacterial lysate of each of the anti-IGSF11 Fabs in 2% (w/v) skim milk powder was applied to the immobilized IGSF11 and incubated for 1 h. After removing all unbound Fab by 3 wash cycles with PBST, bound Fab antibodies were detected with a goat anti-human Fab antibody conjugated with horseradish peroxidase. After three wash cycles with PBST the ELISA was developed with TMB substrate.
B15 gave an A450 of less than 1. For B16, the A450 was less than 1. B17 was tested, and the A450 was less than 1. In the case of B18, the A450 is reported as less than 1. B19 showed an A450 of less than 1. B20 showed an A450 of less than 1. Binder B21 has an A450 of less than 1.

The binders below were run against Streptavidin (UniProt P22629 37-163, limits assumed) (assay: Fab ELISA).
Sequence of Streptavidin (P22629 37-163 limits assumed): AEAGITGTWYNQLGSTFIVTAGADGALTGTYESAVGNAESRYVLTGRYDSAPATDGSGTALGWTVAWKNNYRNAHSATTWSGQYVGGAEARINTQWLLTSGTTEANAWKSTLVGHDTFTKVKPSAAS
Experimental: as §2
B15 showed an A450 of less than 0.1. Work on B16 yielded an A450 of less than 0.1. For B20, the A450 was less than 0.1. Work on B21 yielded an A450 of less than 0.1.
